Test results as given in US20240301030A1.

Legend:
[1] = molecular target: SORLA with C-terminal fusion of the C-terminal fragment of venus fluorescent protein (human) (UniProt Q92673); test: cell-based or functional assay
[2] = molecular target: full-length SORLA with C-terminal GFP-tag (human) (UniProt Q92673); test: cell-based or functional assay

Row | Mander's coefficient, overlap between the green venus signal specific for SORLA dimers and the total SORLA pool [1] | Mander's coefficient, co-localization between the PLA signal (representing SORLA dimers) and SORLA-GFP (representing both monomers and dimers) [2] | Substance
1 | 0.37 | – | SORLA with C-terminal fusion of the N-terminal fragment of venus fluorescent protein, Q92673 82-2214
2 | – | 0.35 | full-length SORLA with C-terminal FLAG-tag, Q92673 82-2214
